The record followed here is publication PMC8626477.

Assay [1] has as its target E2 of the Chaetomium thermophilum pyruvate dehydrogenase complex (PDHc) (Chaetomium thermophilum). Put plainly: cryo-EM structure; native C. thermophilum cell extract, SEC fraction 6, vitrified at 0.3 mg/mL total protein; 10249 particles; reconstructions with icosahedral (3.85 Å), C2 (6.21 Å) and C1 (7.62 Å) symmetry.
Assay [2] concerns the target E3BP of the Chaetomium thermophilum pyruvate dehydrogenase complex (PDHc) (Chaetomium thermophilum). The description is as above.

“E2 of the Chaetomium thermophilum pyruvate dehydrogenase complex (PDHc) (enzyme)”: the stoichiometry N in assay [1] amounted to 60.
For “E3BP of the Chaetomium thermophilum pyruvate dehydrogenase complex (PDHc) (natural protein)”, the stoichiometry N in assay [1] is 12; in assay [2], 3.
